Experimental findings from the RNAGym collection of RNA variant scans (doi:10.7554/elife.80360) are described below.

To fix the notation:
B1: HDV Ribozyme (parent)
chain: GGCCGGCAUGGUCCCAGCCUCCUCGCUGGCGCCGGCUGGGCAACAUUCCGAGGGGACCGUCCCCUCGGUAAUGGCGAAUGGGACCCA

The variants in the series derive from B1. As to the kind of experiment: self-cleavage, relative activity (ratio to wild type); higher = more cleavage; co-transcriptional.
In the case of C3U C41A, the self-cleavage came out at 0.807.
Consider C3U C41G, for which the self-cleavage was found to be 0.499.
For the variant C3U C14A, the self-cleavage was 0.594.
As to C4A C41U, the self-cleavage was 0.163.
As for C4A C41G, the self-cleavage amounted to 0.0519.
Consider C3G C26G, for which the self-cleavage amounted to 0.753.
As to C3G C49U, the self-cleavage was 0.673.
On to C3G C49A, for which the self-cleavage is 0.736.
As for C3U C18A, the self-cleavage was 0.0782.
In the case of C3U C18U, the self-cleavage came out at 0.43.
On to C3G C48A, for which the self-cleavage was 0.698.
As to C3G C48G, the self-cleavage was 0.695.
In the case of C3G C48U, the self-cleavage was found to be 0.736.
With C3G C32A, the self-cleavage came out at 0.
Take C3G C32U: the self-cleavage is 0.198.
For the variant C3G C32G, the self-cleavage turned out to be 0.0282.
Turning to C3G C4G, the self-cleavage amounted to 1.
On to C3G C4A, for which the self-cleavage was 0.0767.
Turning to C3G C22U, the self-cleavage was 0.179.
On to C3G C22A, for which the self-cleavage is 0.119.
On to C3G C22G, for which the self-cleavage was 0.
For C3G C57U the value was 0.75; for C3G C57G, 0.891.
On to C4A C75G, for which the self-cleavage was determined as 0.0396.
The result for C3G A87C reads 0.861; that for C3A U47A, 0.429; that for C3A U47G, 0.237.
Turning to C3G G34U, the self-cleavage came to 0.323.
For C4A A45U, the self-cleavage turned out to be 0.095.
In the case of C4A A83C, the self-cleavage was found to be 0.232.
C4A A83U: the self-cleavage worked out at 0.0959.
The result for C4A A83G reads 0.234; that for C3U A77C, 0.0639.
As to C3U C49A, the self-cleavage was 0.843.
Regarding C3U C49G, the self-cleavage turned out to be 0.68.
Turning to C4A G25C, the self-cleavage amounted to 0.181.
The result for C3U G68C reads 0.781; that for C3U G68A, 0.831.
Regarding C3U G68U, the self-cleavage was 0.866.
Consider C3U A43U, for which the self-cleavage is 0.496.
With C3U A43C, the self-cleavage was determined as 0.293.
Regarding C3U A43G, the self-cleavage is 0.342.
Regarding C4A A71C, the self-cleavage was found to be 0.156.
The result for C3U C64U reads 0.954; that for C3G A71C, 0.261.
For C4A A16U, the self-cleavage stood at 0.0665.
The result for C4A A51C reads 0.277.
For the variant C3G A45U, the self-cleavage came to 0.299.
Turning to C3G A45G, the self-cleavage is 0.816.
The result for C3G A45C reads 0.113.
For the variant C3G G68A, the self-cleavage was 0.51.
For C3G C21A the value was 0; for C3G C21G, 0.
For C4A G53U the value was 0.174; for C4A G53A, 0.201; for C4A G53C, 0.344.
Consider C3U C36U, for which the self-cleavage stood at 0.356.
The result for C3U C36G reads 0.0519.
Turning to C3G U12A, the self-cleavage amounted to 0.0462.
C3G U12G: the self-cleavage stood at 0.32.
Consider C4A G34C, for which the self-cleavage amounted to 0.261.
For C4A G34A the value was 0.284.
Consider C3U A51G, for which the self-cleavage was 0.577.
For C3U C85G the value was 0.87.
The result for C3A U20A reads 0.0683; that for C3A U20G, 0.0163.
For C3G G52A the value was 0.702; for C3G C64A, 0.528.
Take C3G C64U: the self-cleavage was determined as 0.726.
For the variant C3G C64G, the self-cleavage turned out to be 0.546.
Consider C3G C58G, for which the self-cleavage worked out at 0.796.
For C4A C33A the value was 0; for C3G C86G, 1.14; for C3G C86A, 0.876.
As to C3U G59U, the self-cleavage turned out to be 0.943.
For C3U G59C the value was 0.688.
In the case of C3U G59A, the self-cleavage worked out at 0.925.
As to C3G U72C, the self-cleavage was found to be 0.267.
Consider C3G U72A, for which the self-cleavage worked out at 0.237.
With C3G G40C, the self-cleavage is 0.339.
On to C3G G40A, for which the self-cleavage is 0.575.
Consider C3G C7A, for which the self-cleavage came out at 0.0213.
In the case of C4A A56U, the self-cleavage was 0.321.
On to C4A A56C, for which the self-cleavage worked out at 0.287.
C4A A56G: the self-cleavage was 0.217.
As to C4A G38A, the self-cleavage came out at 0.133.
The result for C3G C66A reads 0.585; that for C3G A16U, 0.655.
Turning to C3G A16C, the self-cleavage turned out to be 0.208.
Turning to C3U C21A, the self-cleavage turned out to be 0.122.
For C3U C21U the value was 0.101.
On to C3U A87U, for which the self-cleavage is 0.725.
For C3G G5C the value was 1.5; for C3G G5A, 0.18; for C3G C75G, 0.0496.
With C3G A42U, the self-cleavage turned out to be 0.116.
For C3G A42G the value was 0.138.
Turning to C3G U79C, the self-cleavage is 0.182.
C3G U79G: the self-cleavage came to 0.262.
Regarding C3G G17A, the self-cleavage is 0.102.
Consider C3G G17U, for which the self-cleavage was 0.073.
As for C3U A78C, the self-cleavage is 0.04.
In the case of C3G G67A, the self-cleavage was found to be 0.682.
Turning to C3G G67C, the self-cleavage is 0.524.
Regarding C3G C33U, the self-cleavage was found to be 0.194.
For C3G C33A the value was 0.0817; for C3G C33G, 0.128.
As for C3G G54C, the self-cleavage came out at 0.674.
The result for C3G G54A reads 0.683; that for C3A U60C, 0.499.
In the case of C3U G55A, the self-cleavage stood at 0.763.
With C3G G82C, the self-cleavage was determined as 0.0923.
As for C3U U9G, the self-cleavage amounted to 0.942.
The result for C3U U9C reads 0.95; that for C3G G38U, 0.166.
With C4A G50U, the self-cleavage amounted to 0.372.
Consider C3U G31A, for which the self-cleavage stood at 0.329.
For C3G C84U, the self-cleavage is 0.736.
Take C3G C84G: the self-cleavage amounted to 0.41.
Turning to C4A G5A, the self-cleavage is 0.13.
As to C3G U9A, the self-cleavage amounted to 0.799.
C3G U9G: the self-cleavage was determined as 0.789.
As to C3U U37G, the self-cleavage was 0.0639.
As to C3U A70C, the self-cleavage amounted to 0.566.
On to C3G C63A, for which the self-cleavage turned out to be 0.575.
Regarding C3G C63G, the self-cleavage stood at 0.307.
With C3G C63U, the self-cleavage was found to be 0.589.
The result for C4A C24A reads 0.0475.
As for C3U C19U, the self-cleavage worked out at 0.126.
Consider C3U C19G, for which the self-cleavage turned out to be 0.0171.
The result for C3U G76U reads 0.973.
C4A G54A: the self-cleavage turned out to be 0.268.
For C4A G54U the value was 0.32; for C4A G54C, 0.284; for C4A C48G, 0.148.
For C3G C15U, the self-cleavage worked out at 0.532.
For C3A U12C, the self-cleavage was 0.0615.
The result for C4A C86U reads 0.284; that for C3G C19G, 0.0326.
Regarding C3G C19U, the self-cleavage came to 0.158.
For C3U G28A, the self-cleavage stood at 0.0294.
As for C3U G52A, the self-cleavage worked out at 0.896.
As for C3U G52U, the self-cleavage was 0.723.
The result for C3G G76U reads 0.926.
As for C3G G76A, the self-cleavage was found to be 0.984.
For C3G G76C the value was 0.65; for C3U C15U, 0.562.
The result for C4A C18A reads 0.0277; that for C4A C18G, 0.166; that for C3G A70U, 0.636.
For C3G A70G the value was 0.475; for C3G C61G, 0.561.
C3G C44G: the self-cleavage was 0.0707.
C3G U27C: the self-cleavage was 0.133.
Turning to C4A G17A, the self-cleavage came out at 0.0396.
Take C4A G17U: the self-cleavage worked out at 0.0292.
For the variant C3A U72A, the self-cleavage worked out at 0.07.
On to C3G C85A, for which the self-cleavage amounted to 0.858.
Take C3G C85U: the self-cleavage amounted to 0.751.
As to C3U A16C, the self-cleavage came to 0.437.
On to C4A G39A, for which the self-cleavage amounted to 0.119.
As for C4A G39C, the self-cleavage was found to be 0.
In the case of C4A C21U, the self-cleavage is 0.0346.
Turning to C4A C21A, the self-cleavage was determined as 0.
C3G U37A: the self-cleavage worked out at 0.
Regarding C3G U37G, the self-cleavage amounted to 0.123.
The result for C3U C57G reads 0.803.
